Results: patent publication US20240034783A1 (SOTIO BIOTECH A S, published 2024)

Key:
[1] = target: T1, human CLDN18.2 (human); assay: flow cytometry titration, PA-TU-8988S-High cells
T1 construct: also called huCLDN18.2; hCLDN18.2
Experimental: (§1) In order to have a more homogenous cell population, the cells were sorted by FACS to select only cells with a the higher CLDN18.2 expression. […] After wash in FACS buffer, the cells were incubated with the PE-labeled Fey specific IgG goat anti-human secondary antibody (eBioscience) on ice for 30 min. After wash, the stained cells were resuspended in FACS buffer, analyzed and sorted by a FACSAria™ instrument, separating medium expressing cells from high expressing cells (FIG. 2B). […] HEK293T cells overexpressing CLDN18.2 or CLDN18.1 were generated as described in Example 3 and the expression of CLDN18.2 was analyzed by flow cytometry (FIG. 3).
(§2) A PE-coupled secondary anti-human IgG antibody was added to the cells for additional 30 min at 4° C. after washes with the FC buffer, followed by further washes with FC buffer. The cells were then resuspended in 100 μl FC buffer and measured with a FACSCalibur™ cell analyzer (BD Biosciences, USA).

[2] = target: T1, human CLDN18.2; assay: flow cytometry titration, HEK293T cells overexpressing CLDN18.2
Experimental: as §1, §2

[3] = target: T1, human CLDN18.2; assay: flow cytometry, live cells from mouse tumor of A549 cells expressing CLDN18.2, antibody 4 µg/ml
Experimental: (§3) Two Balb/c mice were implanted subcutaneously with 1×10⁶ A549 cells expressing CLDN18.2 in 100 μl of 50% Matrigel and tumors growth was monitored over a few weeks until the tumor reached the desired size between 150-450 mm 3. Healthy stomach tissue and tumor tissue was collected for FC analysis. The collected tissues were cut into small pieces and digested with the Miltenyi tumor dissociation kit (MACS Miltenyi Biotec, Germany). Tissue pieces were incubated with dissociation buffer (prepared according to the manufacturer instruction) in 6 well plates for 30 min in 37° C. under permanent gentle rocking motion. Samples were resuspended and strained through a 70 μm cell strainer (Corning, USA) followed by a wash with 20 ml FC buffer (PBS+2% FBS). Cell suspensions were centrifuged (5 min at 400 g for 4° C.) and the supernatants were discarded. If needed, cell suspensions were passed through a strainer and centrifuged repeatedly and pellets resuspended in 5 ml of red blood cell lysis buffer (Biolegend, USA), incubated on ice for 4 min. After incubation, 25 ml of PBS was added, and the suspensions were centrifuged again (5 min at 400 g for 4° C.). Pellets were resuspended in FC buffer (0.5-3 ml based on pellets). Equal number of cells were transferred into 96 well plates and further processed for FC analysis. The cells in the plates were washed with PBS and centrifuged (400 g for 2 min at 4° C.). […] After incubation, cells were washed twice in PBS and centrifuged (400 g for 2 min at 4° C.). Pellets were resuspended in 50 μl/well of secondary staining mix (PBS+PE-labelled anti-human antibody) (Thermo Fisher Scientific, USA), and incubated 25 min on ice. After incubation cells were washed again twice in PBS. Pellets were resuspended in 100 μl of PBS containing DAPI. Plates were kept on ice until FC analysis. For FC analysis, live cells were separated from dead cells by forward scatter and DAPI stain. Live cells were then gated for the presence of cytokeratin ([…]) and bound CLDN18.2 antibodies (PE positive cells).

[4] = target: T1, human CLDN18.2; assay: flow cytometry; % positive tumor cells divided by % positive healthy stomach cells
Experimental: as §3

Row | EC50 [1] [µg/mL] | Max MFI [1] [MFI] | EC50 [2] [µg/mL] | Max MFI [2] [MFI] | % of positive tumor cells (Average) [3] [%] | % of positive tumor cells (Mouse 1) [3] [%] | % of positive tumor cells (Mouse 2) [3] [%] | Ratio tumor/stomach (Average) [4] | Ratio tumor/stomach (Mouse 1) [4] | Ratio tumor/stomach (Mouse 2) [4] | Binder
1 | 2.43 | 1650 | 0.598 | 1880 | 26 | 34 | 18 | 34.7 | 28.3 | 60 | hCl1a (antibody, human IgG1, kappa, V domains shown, Humanized) VH: QVQLVQSGAEVKKPGASVKVSCKASGYTFTDYAMHWVRQAPGQRLEWMGWINTYTGKPTYAQKFQGRVTITRDTSASTAYMELSSLRSEDTAVYYCARAVFYGYTMDAWGQGTLVTVSS VL: DIQMTQSPSSLSASVGDRVTITCRASEDIYSNLAWYQQKPGKAPKLLIFSVKRLQDGVPSRFSGSGSGTDFTLTISSLQPEDFATYYCLQGSNFPLTFGQGTKVEIKR
2 | 1.75 | 1950 | 0.432 | 2080 |  |  |  |  |  |  | hCl1h (antibody, human IgG1, kappa, V domains shown, Humanized) VH: QVQLVQSGAEVKKPGASVKVSCKASGYTFTDYAMYWVRQAPGQRLEWMGWINAYTGKPTYAQKFQGRVTITRDTSASTAYMELSSLRSEDTAVYYCARAVYYGYTMDAWGQGTLVTVSS VL: DIQMTQSPSSLSASVGDRVTITCRASEDIYSNLAWYQQKPGKAPKLLIYSVKRLQDGVPSRFSGSGSGTDFTLTISSLQPEDFATYYCLQGSNFPLTFGQGTKVEIKR
3 | 1.47 | 1050 | 0.753 | 1230 | 18.5 | 29 | 8 | 74 | 290 | 20 | hCl1c (antibody, human IgG1, kappa, V domains shown, Humanized) VH: QVQLVQSGAEVKKPGASVKVSCKASGYTFTDYAMHWVRQAPGQRLEWMGWINTYTGKPTYSQKFQGRVTITRDTSASTAYMELSSLRSEDTAVYYCARAVFYGYTMDAWGQGTLVTVSS VL: DIQMTQSPSSLSASVGDRVTITCRTSEDIYSNLAWYQQKPGKAPKLLIFAIKRLQDGVPSRFSGSGSGTDFTLTISSLQPEDFATYYCLQGSKFPLTFGQGTKVEIKR
4 | 1.98 | 1720 | 0.572 | 1860 | 30 | 43 | 17 | 53.1 | 43 | 131 | hCl1b (antibody, human IgG1, kappa, V domains shown, Humanized) VH: QVQLVQSGAEVKKPGASVKVSCKASGYTFTDYAMHWVRQAPGQRLEWMGWINTYTGKPTYSQKFQGRVTITRDTSASTAYMELSSLRSEDTAVYYCARAVFYGYTMDAWGQGTLVTVSS VL: DIQMTQSPSSLSASVGDRVTITCRASEDIYSNLAWYQQKPGKAPKLLIFSVKRLQDGVPSRFSGSGSGTDFTLTISSLQPEDFATYYCLQGSNFPLTFGQGTKVEIKR
5 | 1.77 | 1250 | 0.678 | 1440 |  |  |  |  |  |  | hCl1g (antibody, human IgG1, kappa, V domains shown, Humanized) VH: QVQLVQSGAEVKKPGASVKVSCKASGYTFTDYAMHWVRQAPGQRLEWMGWINAYTGKPTYAQKFQGRVTITRDTSASTAYMELSSLRSEDTAVYYCARAVFYGYTMDAWGQGTLVTVSS VL: DIQMTQSPSSLSASVGDRVTITCRTSEDIYSNFAWYQQKPGKAPKLLIYSVNRLQDGVPSRFSGSGSGTDFTLTISSLQPEDFATYYCLQGSKFPLTFGQGTKVEIKR
6 | 1.23 | 2090 | 0.444 | 2180 |  |  |  |  |  |  | hCl1i (antibody, human IgG1, kappa, V domains shown, Humanized) VH: QVQLVQSGAEVKKPGASVKVSCKASGYTFTDYAMYWVRQAPGQRLEWMGWINAYTGKPTYAQKFQGRVTITRDTSASTAYMELSSLRSEDTAVYYCARAVYYGYTMDAWGQGTLVTVSS VL: DIQMTQSPSSLSASVGDRVTITCRASEDIYSNLAWYQQKPGKAPKLLIFSVKRLQDGVPSRFSGSGSGTDFTLTISSLQPEDFATYYCLQGSNFPLTFGQGTKVEIKR
7 | 2.14 | 1600 | 0.795 | 1720 | 23 | 32 | 14 | 329 | 800 | 140 | hCl1f (antibody, human IgG1, kappa, V domains shown, Humanized) VH: QVQLVQSGAEVKKPGASVKVSCKASGYTFTDYAMHWVRQAPGQRLEWMGWINAYTGKPTYAQKFQGRVTITRDTSASTAYMELSSLRSEDTAVYYCARAVFYGYTMDAWGQGTLVTVSS VL: DIQMTQSPSSLSASVGDRVTITCRASEDIYSNLAWYQQKPGKAPKLLIYSVKRLQDGVPSRFSGSGSGTDFTLTISSLQPEDFATYYCLQGSNFPLTFGQGTKVEIKR
8 | 1.16 | 1700 | 0.408 | 1850 |  |  |  |  |  |  | hCl1j (antibody, human IgG1, kappa, V domains shown, Humanized) VH: QVQLVQSGAEVKKPGASVKVSCKASGYTFTDYAMYWVRQAPGQRLEWMGWINAYTGKPTYAQKFQGRVTITRDTSASTAYMELSSLRSEDTAVYYCARAVYYGYTMDAWGQGTLVTVSS VL: DIQMTQSPSSLSASVGDRVTITCRTSEDIYSNLAWYQQKPGKAPKLLIFAIKRLQDGVPSRFSGSGSGTDFTLTISSLQPEDFATYYCLQGSKFPLTFGQGTKVEIKR
9 | 1.93 | 1530 | 0.541 | 1640 |  |  |  |  |  |  | hCl1d (antibody, human IgG1, kappa, V domains shown, Humanized) VH: QVQLVQSGAEVKKPGASVKVSCKASGYTFTDYAMHWVRQAPGQRLEWMGWINTYTGKPTYSQKFQGRVTITRDTSASTAYMELSSLRSEDTAVYYCARAVFYGYTMDAWGQGTLVTVSS VL: DIQMTQSPSSLSASVGDRVTITCRTSEDIYSNFAWYQQKPGKAPKLLIYSVNRLQDGVPSRFSGSGSGTDFTLTISSLQPEDFATYYCLQGSKFPLTFGQGTKVEIKR
10 | 2.24 | 1860 | 0.558 | 1940 |  |  |  |  |  |  | hCl1e (antibody, human IgG1, kappa, V domains shown, Humanized) VH: QVQLVQSGAEVKKPGASVKVSCKASGYTFTDYAMYWVRQAPGQRLEWMGWINTYTGKPTYAQKFQGRVTITRDTSASTAYMELSSLRSEDTAVYYCARAVFYGYTMDAWGQGTLVTVSS VL: DIQMTQSPSSLSASVGDRVTITCRASEDIYSNLAWYQQKPGKAPKLLIFSVKRLQDGVPSRFSGSGSGTDFTLTISSLQPEDFATYYCLQGSNFPLTFGQGTKVEIKR
11 |  |  |  |  | 26 | 37 | 15 | 74.3 | 92.5 | 50 | cCl1-1 (antibody, V domains shown, Chimeric antibody from a rat hybridoma; not built in; also called chimeric cCl1-1 antibody) VH: QIQLVQSGPELKKPGESVKISCKASGYTFTDYAMHWVKQAPGKGLKWMGWINTYTGKPTYADDFKGRFVFSLEASASTANLQISNLKNEDTATYFCARAVFYGYTMDAWGQGTSVTVSS VL: DIQMTQSPASLSASLGETISIACRASEDIYSNLAWYQQKSGKSPQLLIFSVKRLQDGVPSRFSGSGSGTQYSLKISGMQPEDEGDYFCLQGSNFPLTFGSGTKLEIK
